Reference: patent US20150299319A1

Molecular target: KIR2DL1 on human NK cell clones (human) (UniProt P43626)
Experiment: cell-based or functional assay

Sequence of UniProt P43626 (P43626 22-348): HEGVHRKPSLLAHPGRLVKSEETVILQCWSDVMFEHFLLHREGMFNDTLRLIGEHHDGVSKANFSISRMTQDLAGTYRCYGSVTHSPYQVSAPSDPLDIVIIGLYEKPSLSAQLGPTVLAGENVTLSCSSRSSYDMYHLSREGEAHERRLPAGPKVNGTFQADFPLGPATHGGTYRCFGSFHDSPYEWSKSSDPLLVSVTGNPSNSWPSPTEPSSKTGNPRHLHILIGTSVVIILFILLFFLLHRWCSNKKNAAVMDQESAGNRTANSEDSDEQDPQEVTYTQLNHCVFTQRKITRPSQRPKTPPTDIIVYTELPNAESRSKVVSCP

lysis of autologous Cw4+ PHA blasts by NK cells with Campath: > 30%
Substance: EB6 monoclonal antibody (IgG1, anti KIR2DL1)
